Measured values published in patent US6001823A, “Treatment or prophylaxis of diseases caused by pilus-forming bacteria” (priority 1995, dated 1999).
“Also recorded” adds a separate entry of the source.

Tests used:
PapD [1] = molecular target: T1, PapD (Escherichia coli, UniProt P15319); assay: ELISA: peptide inhibition of PapD binding to MBP-G1'-140' fusion protein; design: species or system E. coli; settings: PapD preincubated with peptide at 1:25 ratio
T1 sequence (P15319 22-239): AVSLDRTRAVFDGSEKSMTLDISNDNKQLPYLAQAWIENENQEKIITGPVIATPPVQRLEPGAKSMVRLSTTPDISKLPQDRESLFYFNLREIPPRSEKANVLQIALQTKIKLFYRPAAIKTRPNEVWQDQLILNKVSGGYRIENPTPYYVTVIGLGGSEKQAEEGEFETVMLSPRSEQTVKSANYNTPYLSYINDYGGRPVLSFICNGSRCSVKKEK
Protocol: The ability of the peptides to inhibit the binding of PapD to the MBP-G1'-140' fusion protein was then investigated using the following ELISA test:
Stock solutions of MBP-G1'-140' proteins in PBS were diluted to 0.1 μM with PBS. The wells of microtiter plates were coated with 50 μl of the protein solutions overnight at 4° C. The wells were washed with PBS, and blocked with 200 μl of 3% bovine serum albumin (BSA) in PBS for 2 hours at 25° C. The plates were washed vigorously three times with PBS and incubated with 50 μl of 1-5 μM PapD proteins in 3% BSA-PBS for 45 minutes at 25° C. The PapD was preincubated with each of the peptides at a 1:25 ratio for 30 min before being added to the wells. After three washings with PBS, the wells were incubated with a 1:500 dilution of rabbit anti-PapD antiserum in 3% BSA-PBS for 45 minutes at 25° C. After three washings with PBS, the wells were incubated with a 1:1000 dilution of goat antiserum to rabbit IgG coupled to alkaline phosphatase in 3% BSA-PBS for 45 minutes at 25° C. After three washings with PBS and three washings with developing buffer (10 mM diethanolamine, 0.5 mM MgCl2), 50 μl filtered 1 mg/ml p-nitrophenyl phosphate in developing buffer was added, the reaction was incubated for 1 hour or longer if necessary in the dark at 25° C., and the absorbance at 405 nm was read.

[2] = Water solubility of peptides; type: physicochemical; design: key: *: Water insoluble peptides
PapD [3] = molecular target: T1, PapD; assay: ELISA: PapD binding to peptides coated on microtiter wells; design: made in house; species or system E. coli; settings: for binding of PapD to immobilized peptide: peptide coated on microtiter wells, ELISA; for reduction of binding of PapD to the immobilized peptide: variant of the PapG carboxyl terminal peptide
Protocol: The residues in the peptides were numbered starting with the carboxyl terminal residue as 1, and ending with the amino terminal residue. Peptides were also synthesized which deviated in length (G1'-16'WT, G1'-11'WT, G1'-7'WT) or sequence (G2'-21'amide, G1'-19'SV, G1'-19'NH2) from the wild type PapG carboxyl terminal sequence. Using an enzyme-linked immunosorbent assay (ELISA), we tested the ability of PapD to bind to each peptide coated on wells of microtiter plates:
5 mg/ml stock solutions of peptides in water or 50% acetic acid were diluted to a concentration of 2.5 pmol/50 μl in PBS. 50 μl of the peptide solution was coated overnight onto microtiter wells (Nunc-Immuno Plate Maxisorp) at 4° C. The solutions in the plates were discarded, and the wells were blocked with 200 μl 3% bovine serum albumin (BSA, Sigma) in PBS (120 mM NaCl/2.7 mM KCl/10 mM phosphate buffer salts, pH 7.4) for 2 hours at 25° C. The plates were washed vigorously 3 times with PBS and incubated with 50 μl of the indicated amount of purified PapD (Lindberg et al, 1989). After 3 washes with PBS, the wells were incubated with a 1:500 dilution of anti-PapD rabbit antiserum (Lindberg et al, 1989) in 3% BSA/PBS for 45 min. at 25° C. After 3 washes with PBS, the wells were incubated with a 1:1000 dilution of goat anti-rabbit IgG coupled to alkaline phosphatase (Sigma) in 3% BSA/PBS for 45 min. at 25° C. Following 3 washes with PBS and 3 washes with developing buffer (10 mM diethanolamine pH 9.5, 0,5 mM MgCl2), 50 μl filtered p-nitrophenyl phosphate substrate (Sigma) in developing buffer (10 mg/ml) was added. The absorbance at 405 nm was read after 60 min of incubation in the dark at 25° C.

PapD-PapG complex = molecular target: T2, PapD-PapG complex (Escherichia coli, UniProt P15319); assay: Reconstitution assay: restoration of PapD-PapG complex from reduced, denatured PapG; type: biochemical, E. coli; settings: PapD incubated with increasing amounts of peptide
T2 construct: made in house
T2 sequence (P15319 22-239): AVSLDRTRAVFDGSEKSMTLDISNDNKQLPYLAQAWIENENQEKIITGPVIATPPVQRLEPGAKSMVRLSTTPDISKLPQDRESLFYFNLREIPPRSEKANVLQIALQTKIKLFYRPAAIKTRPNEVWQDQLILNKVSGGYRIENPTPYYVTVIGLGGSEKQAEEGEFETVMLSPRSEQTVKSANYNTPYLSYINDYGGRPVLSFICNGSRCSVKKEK
Protocol: B: PapD incubated with the G1'-19'WT, G1'-16'WT, K1'-19'WT, and G2'-21'amide was added to reduced, denatured PapD-PapG and the amount of PapD-PapG complex restored in each sample was quantitated as described in example 2. The % inhibition represents the amount of the PapD-PapG complex restored with peptide-treated PapD compared to the amount of PapD-PapG complex restored with untreated PapD. The graph represent the average of 4 experiments. PapD and PapD-PapG complex were prepared as described in F. Lindberg et al, J. Bacteriol. 171, 6052 (1989) and S. J. Hultgren et al., Proc. Natl. Acad. Sci. U.S.A. 86, 4357 (1989).
FIG. 7: Ability of PapD Arg-8, Lys-112 and Thr-7 mutants to bind PapG and restore the PapD-PapG complex in vitro. 0.4 μg of PapD-PapG complex was reduced and denatured as described in FIG. 2B. The denatured PapD-PapG complex was then diluted with 0-630 ng purified wild type (WT) or mutant PapD. The amount of PapD-PapG restored in the samples was determined as in FIG. 2B and was graphed as a percentage of the greatest amount of PapD-PapG restored. The values graphed represent the average of 3 experiments. Wild type and mutant PapD and the PapD-PapG complex were purified as described in F. Lindberg et al, J. Bacteriol. 171, 6052 (1989) and S. J. Hultgren et al., Proc. Natl. Acad. Sci. U.S.A. 86, 4357 (1989).
As described in Kuehn et al., Proc. Natl. Acad. Sci. U.S.A. 88, 10586 (1991), native PapD is able to bind to reduced, denatured PapG and restore the PapD-PapG complex in vitro. This reconstitution assay was used to determine the ability of the peptides to inhibit PapD activity in vitro.
The PapD-peptide solution was then added to the reduced, denatured PapD-PapG, incubated at 25° C. for 10 min, and applied to an IEF 3-9 gel (Pharmacia). The amount of PapD-PapG restored in each sample was quantitated by densitometry of the silver stained IEF band corresponding to the pI of the DG complex.

PapD [4] = molecular target: T1, PapD; assay: Soluble inhibition ELISA: peptide inhibition of PapD binding to G1'-19'WT-coated wells; design: made in house; species or system E. coli; settings: for % Inhibition: 25-fold molar excess of peptide, 100 pmol/well PapD, G1'-19'WT-coated wells; for inhibition of PapD binding to immobilized G1'-19'WT by soluble peptide: peptide in solution
Protocol: In addition, the ability of water-soluble peptides to inhibit PapD binding to G1'-19'WT-coated wells in a soluble inhibition ELISA were tested, since peptide conformations may have been affected by binding to the plastic microtiter plates:
Microtiter wells were coated overnight at 4° C. with 50 μl of 2,5 pmol/50 μl of the G1'-19'WT peptide. The wells were washed with PBS and blocked with 3% bovine serum albumin (BSA). A 25-fold molar excess of each test peptide was pre-incubated with 100 pmoles PapD for 30 min. and the PapD-peptide solution was then added to the coated wells and incubated at 25° C. for 45 min in the presence of 3% BSA/PBS. The subsequent primary antibody, secondary antibody and developing steps are described above. The ability of the peptides to inhibit binding of PapD to the G1'-19'WT peptide was calculated by dividing the amount of PapD binding in the presence of peptide with the amount of PapD binding in the presence of water. 0% inhibition includes values where binding was greater than that of PapD pre-incubated with H2 O.
The % inhibition represents the percentage of PapD binding in the presence of the peptide compared to in the presence of water and are the average of two experiments performed duplicate: […]

PapD [5] = molecular target: T1, PapD; assay: Protection of PapD against tryptic cleavage by peptides; type: biochemical, E. coli; design: made in house; settings: PapD preincubated with 20-fold molar excess of peptide
Protocol: A Lower: The rate of trypsin cleavage of PapD decreased upon preincubation with the G1'-19'WT, G1'-16'WT or K1'-19'WT peptides, but the G2'-21'amide peptide had no effect. 50 μg of purified PapD was preincubated for 15 min at 25° C. with a 20-fold molar excess of G1'-19'WT, G1'-16'WT, K1'-19'WT or G2'-21'amide peptides (any trypsin cleavage sites in these peptides occur at their amino termini where they were predicted not to interfere with PapD), or an equivalent volume of water. Each sample was then incubated at 37° C. with 3.2 μg of trypsin. Aliquots were removed after 0, 5, 10, 20, 30 and 40 min and boiled in SDS-PAGE sample buffer to stop the digestion. The samples were applied to 15% SDS-PAGE gels and the amount of full-length PapD remaining was determined by densitometry of Coomassie blue stained bands corresponding to full-length PapD which are shown.
400 μg of PapD was partially digested by incubation with either 4,5 μg trypsin or 0.45 μg chymotrypsin on PBS for 20 min. at 37° C. The PapD digests were applied to a C-18 HPLC column (Beckman) and 2 major fragments were eluted with a 0-100% acetonitrile gradient in 0.01% trifluoroacetic acid. The PapD fragments were identified by their molecular weight on SDS-PAGE and amino-terminal sequencing. The N-terminal amino acid sequences of the approximately 14 kDa tryptic and chymotryptic fragments were identified as residues 100-108 and 104-109 of PapD, respectively, corresponding to cleavage after Lys-99 (for trypsin) and Leu-103 (for chymotrypsin). The N-terminal sequences of the 11 and 12 kDa bands in the digests were identical to the N-terminal sequence of PapD.

HB101/pPAP37 = assay: Hemagglutination titer of PapD mutants; type: cell-based, E. coli; settings: induction with 0.01 mM IPTG; greatest bacterial dilution which still agglutinates erythrocytes
Protocol: *The hemagglutionation (HA) titer was quantitated after induction with
0.01 mM IPTG. The HA titer represents the greatest bacterial dilution
which still agglutinates erythrocytes. HB101/pPAP37 expressing wild type
PapD has an HA titer of 128.

## H-SGSMTMVLSFP-OH [G1'-11'WT, NH2--SGSMTMVLSFP--COOH]
PapD [1]
  inhibition of binding of PapD to MBP-G1'-140' fusion protein: significantly more potent
[2]
  water solubility: *
PapD [3]
  binding of PapD to immobilized peptide: binds

## NH2--EEGKRKPGELSGSMTMVLSF--CONH2 (H-EEGKRKPGELSGSMTMVLSF-NH2) [G2'-21'amide]
PapD-PapG complex
  inhibition of restoration of the PapD-PapG complex by PapD: no effect
PapD [3]
  binding of PapD to immobilized peptide: reduced binding
  reduction of binding of PapD to the immobilized peptide: approximately 75%
PapD [4]
  % Inhibition: 0%
  inhibition of PapD binding to immobilized G1'-19'WT by soluble peptide: abolished binding
PapD [5]
  rate of tryptic cleavage of PapD: no effect

## NH2--GILNGGDFQTTASMAMIYN--COOH (H-GILNGGDFQTTASMAMIYN-OH) [F1'-19'WT]
PapD [3]
  binding of PapD to immobilized peptide: moderately

## NH2--GKRKPGELSGSMTMVLSFP--CONH2 (H-GKRKPGELSGSMTMVLSFP-NH2) [G1'-19'amide]
PapD [3]
  binding of PapD to immobilized peptide: did not affect binding
PapD [4]
  % Inhibition: 56%
  inhibition of PapD binding to immobilized G1'-19'WT by soluble peptide: did not affect binding

## NH2--GKRKPGELSGSMTMVLSFP--COOH (H-GKRKPGELSGSMTMVLSFP-OH) [G1'-19'WT, 19 carboxyl terminal residues of PapG]
PapD-PapG complex
  inhibition of restoration of the PapD-PapG complex by PapD: inhibit restoration
PapD [3]
  binding of PapD to immobilized peptide: bound well
PapD [4]
  % Inhibition: 63%
PapD [5]
  rate of tryptic cleavage of PapD: decreased; also recorded: reduced the rate of tryptic cleavage

## NH2--GKRKPVELSGSMTMVLSSP--COOH (H-GKRKPVELSGSMTMVLSSP-OH) [G1'-19'SV]
PapD [3]
  reduction of binding of PapD to the immobilized peptide: 36%
PapD [4]
  inhibition of PapD binding to immobilized G1'-19'WT by soluble peptide: as efficient a soluble PapD inhibitor as the peptide G1'-19'WT

## NH2--KKLEAGNYFAVLGFRVDYE--COOH (H-KKLEAGNYFAVLGFRVDYE-OH) [H1'-19'WT]
PapD [3]
  binding of PapD to immobilized peptide: no binding

## NH2--KSVVPGDYEATATFELTYR--COOH (H-KSVVPGDYEATATFELTYR-OH) [K1'-19'WT]
PapD-PapG complex
  inhibition of restoration of the PapD-PapG complex by PapD: inhibit restoration
PapD [3]
  binding of PapD to immobilized peptide: moderately
PapD [5]
  rate of tryptic cleavage of PapD: decreased; also recorded: reduced the rate of tryptic cleavage

## NH2--QNLIAGPFSATATLVASYS--COOH (H-QNLIAGPFSATATLVASYS-OH) [E1'-19'WT]
[2]
  water solubility: *
PapD [3]
  binding of PapD to immobilized peptide: moderately

## NH2--YALAPNAVIPTSLALL--COOH (H-YALAPNAVIPTSLALL-OH) [MS, random hydrophobic peptide, reference compound]
PapD [3]
  binding of PapD to immobilized peptide: no binding
PapD [4]
  % Inhibition: 1%

B1: wild type PapD: wild type periplasmic chaperone PapD (protein, UniProt P15319 22-239, looked up)
Chaperone protein PapD: AVSLDRTRAVFDGSEKSMTLDISNDNKQLPYLAQAWIENENQEKIITGPVIATPPVQRLEPGAKSMVRLSTTPDISKLPQDRESLFYFNLREIPPRSEKANVLQIALQTKIKLFYRPAAIKTRPNEVWQDQLILNKVSGGYRIENPTPYYVTVIGLGGSEKQAEEGEFETVMLSPRSEQTVKSANYNTPYLSYINDYGGRPVLSFICNGSRCSVKKEK
HB101/pPAP37
  HA titer: 128
